This experiment has as its target T1, Soluble Aβ 1-40 (UniProt P05067 672-711).
T1 construct: domain: Aβ 1-40
In words: SPR (BIAcore), alternate method: antibody captured on protein A or A/G, Aβ 1-40 in flow, 5 h dissociation, 1:1 model with mass transfer; alternate method: antibody captured on protein A or A/G, 5 h dissociation.

Description: Protein A or protein A/G is immobilized via amine coupling to flow cells 1 and 2 of a B1 or CM5 sensor chip (BIAcore). The test antibody is then captured in flow cell 2 at desired levels (usually a 10-60 second injection of antibody) and 5 minutes is allowed for the antibody to stabilize. […] Each concentration is injected over the surface for 5 minutes at a flow rate of 50 μL/min. […] Aβ 1-40 and antibody are then eluted from both flow cells with a 40 second injection of glycine (pH 1.5). The signal is allowed to stabilize for 2 minutes before the next cycle. The data from flow cell 1 is subtracted from flow cell 2 to account for any bulk shifts due to buffer differences or non-specific binding to the sensor chip or protein A. The various concentrations are injected randomly and each concentration is run in duplicate. Two 0 nM runs are used to control for any dissociation of antibody from the protein A or A/G capture surface. The data is analyzed using the Biaevalution software. A 1:1 model with mass transfer and a local Rmax is used as the best fit for the data.

B1: humanized 266 antibody (antibody, human IgG1, kappa, V domains shown)
VH: EVQLVESGGGLVQPGGSLRLSCAASGFTFSRYSMSWVRQAPGKGLELVAQINSVGNSTYYPDTVKGRFTISRDNAKNTLYLQMNSLRAEDTAVYYCASGDYWGQGTLVTVSS
VL: DVVMTQSPLSLPVTLGQPASISCRSSQSLIYSDGNAYLHWFLQKPGQSPRLLIYKVSNRFSGVPDRFSGSGSGTDFTLKISRVEAEDVGVYYCSQSTHVPWTFGQGTKVEIKR
The molecule B1 yielded a Kd of 0.4 nM.

Source of the values: patent publication US20060073149A1 (published 2006).
